Assay results published in US20240199757A1 (UNIVERSITY OF CHICAGO, published 2024).
Positions count from the first letter of the chain named.

What was measured:
[1] = molecular target: T1, Full-length human NT5E (recombinant, in-house) (human, UniProt P21589 27-549); experiment: SPR, His-captured NT5E, no ATP
T1 construct: also called hNT5E; hNT5EWT
T1 sequence: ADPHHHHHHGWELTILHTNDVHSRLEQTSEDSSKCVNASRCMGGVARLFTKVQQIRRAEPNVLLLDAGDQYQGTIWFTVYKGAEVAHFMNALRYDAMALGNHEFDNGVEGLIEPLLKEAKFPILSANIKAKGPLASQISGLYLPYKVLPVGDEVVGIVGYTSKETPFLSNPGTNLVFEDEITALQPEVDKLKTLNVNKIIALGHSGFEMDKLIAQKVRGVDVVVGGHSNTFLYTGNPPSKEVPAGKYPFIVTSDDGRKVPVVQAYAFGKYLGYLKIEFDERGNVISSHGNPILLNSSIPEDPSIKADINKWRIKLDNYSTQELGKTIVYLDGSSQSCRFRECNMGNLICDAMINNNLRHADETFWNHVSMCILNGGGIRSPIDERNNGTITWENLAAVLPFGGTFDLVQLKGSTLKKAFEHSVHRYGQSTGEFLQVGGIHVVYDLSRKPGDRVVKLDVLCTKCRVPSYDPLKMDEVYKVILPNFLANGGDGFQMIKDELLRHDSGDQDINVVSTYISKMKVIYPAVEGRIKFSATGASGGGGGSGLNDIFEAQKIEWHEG
Protocol: (§1) All SPR experiments were performed at 25° C. using MASS-1 (Bruker) instrument. hNT5E, mNT5E and cNT5E were immobilized onto a nitrilotriacetic acid (NTA) sensor chip via His-tag. For kinetic experiments, after ligand immobilization, 2-fold serial dilutions of the Fabs were injected. After double-reference subtraction data were analyzed with BiaEvaluation (GE Healthcare) or Sierra Analyser (Bruker) software. The experiments were carried in buffers in presence and absence of 1 mM ATP to compare the kinetic parameters of the Fabs binding to closed and open form of NT5E.

[2] = molecular target: T2, Full-length cynomolgus NT5E (recombinant) (cynomolgus, UniProt P21589 27-549 (human entry)); experiment: SPR, His-captured NT5E, no ATP
T2 construct: also called cNT5E; cyno NT5E
T2 chain: T1 sequence with M209T, T363M, V476I
Protocol: as §1

[3] = molecular target: T1, Full-length human NT5E (recombinant, …); experiment: DSF thermal shift, 1.5-fold molar excess of Fab, no ATP (NT5E alone 49° C.)
Protocol: Thermal stability of samples was analyzed by differential scanning fluorimetry (DSF) using a real-time PCR instrument (Bio-Rad CFX384). Protein samples were mixed with 4× Sypro Orange at a final 4 μM concentration. For target/Fab complexes, 1.5-fold molar excess of Fab was used. All reactions were performed in triplicates in a 384-well plate. Thermal melting curves were monitored from 25° C. to 95° C. in steps of 0.5° C./30 s. Wavelengths of 490 and 575 nm were used for excitation and emission, respectively. The melting temperatures were inferred from the first derivative of the melting curves from the mean of triplicate runs using CFX software provided by the manufacturer.
TABLE 6 Summary of TM for hNT5EWT hNT5EDF, and hNT5E by differential scanning fluorimetry. […] Melting temperatures (TM) are for NT5E only and are represented by the mean of three replicates.

[4] = molecular target: T3, Full-length murine NT5E (recombinant) (murine, UniProt Q61503 29-552); experiment: ELISA, biotinylated NT5E on neutravidin plate, 1 mM ATP; ELISA, recombinant mNT5E, with ATP (EC50ATP)
T3 construct: also called mNT5E
T3 sequence: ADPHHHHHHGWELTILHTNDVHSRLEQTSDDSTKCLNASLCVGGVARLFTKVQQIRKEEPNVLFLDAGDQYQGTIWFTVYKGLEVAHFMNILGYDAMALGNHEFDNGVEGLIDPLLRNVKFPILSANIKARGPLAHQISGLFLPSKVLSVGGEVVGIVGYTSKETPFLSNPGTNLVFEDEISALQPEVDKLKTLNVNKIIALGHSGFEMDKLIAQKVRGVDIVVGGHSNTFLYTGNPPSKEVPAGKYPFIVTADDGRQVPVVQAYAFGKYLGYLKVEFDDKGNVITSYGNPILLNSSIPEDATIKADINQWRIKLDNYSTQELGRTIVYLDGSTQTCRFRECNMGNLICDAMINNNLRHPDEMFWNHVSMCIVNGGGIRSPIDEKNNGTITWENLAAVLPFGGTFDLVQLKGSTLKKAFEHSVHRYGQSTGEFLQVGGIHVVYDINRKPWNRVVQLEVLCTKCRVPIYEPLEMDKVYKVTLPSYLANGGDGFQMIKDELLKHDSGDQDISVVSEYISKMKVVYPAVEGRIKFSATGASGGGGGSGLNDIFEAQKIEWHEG
Protocol: (B) Protein ELISA: Protein-based multipoint ELISA was performed to estimate the affinity of the generated Fabs and IgGs to NT5E. The binding of the Fabs and IgGs to the closed form of NT5E were determined in ELISA buffer (HBST) supplemented with 10 μM zinc chloride and 1 mM ATP while the binding of the same to open form of NT5E were determined in ELISA buffer (HBST) without any cofactors. A fixed concentration of the immobilized target (50 nM) on ELISA plate was incubated with 3-fold serial dilutions of the purified Fabs and IgGs starting from 3 μM and 1 μM respectively for 15 min. The plates were washed and were subsequently incubated with a secondary HRP-conjugated anti-protein L monoclonal antibody (#32420, ThermoFisher, 1:6000 dilution). As with phage ELISA, the plates were again washed, developed with TMB substrate and quenched with 1.0 M HCl, and absorbance (Abs450) was determined. To determine the affinity (EC50), the data were fitted with a non-linear, 4-parameter logistic curve in OriginLab.

B1: 1789 Fab (Fab, V domains shown)
VH: EVQLVESGGGLVQPGGSLRLSCAASGFNVSYSSIHWVRQAPGKGLEWVASISSSSGYTYYADSVKGRFTISADTSKNTAYLQMNSLRAEDTAVYYCARNYWGWYPFYYFAFDYWGQGTLVTV
VL: DIQMTQSPSSLSASVGDRVTITCRASQSVSSAVAWYQQKPGKAPKLLIYSASSLYSGVPSRFSGSRSGTDFTLTISSLQPEDFATYYCQQGWDYPITFGQGTKVEIKR
Kd [1]: 760 nM
koff [1]: 0.044 s⁻¹
kon [1]: 57000 M⁻¹ s⁻¹
Kd [2]: 150 nM
koff [2]: 0.02 s⁻¹
TM of NT5E in the presence of the Fab [3]: 48 ° C.
EC50 [4]: 132 nM
